In patent US20220259593A1, “CONTROL OF MAMMALIAN GENE DOSAGE USING CRISPR” (The Regents of the University of California, priority 2019, published 2022) one finds Mean relative activity data, which are given here for 22 molecules.

The labels stand for the following.
B1: cr087 (nucleic acid)
guide: CTTTGAGAGCTAAGCTGGAAACAGCATAGCAAGTTTAAATAAGGCTAGTCCGTTATCAACTTGAAAAAGTGGCACCGAGTCGGTGCT
modifications: listed as DNA, chemistry not fully specified
B2: cr290 (nucleic acid)
guide: GTTTAAGAGCTAAGCTGGAAACAGCATAGCAAGTTTAAATAAGGCTAGTCCATTATCAACTTGAAAAAGTTGCACCGAGTCGGTGCT
modifications: listed as DNA, chemistry not fully specified
B3: cr739 (nucleic acid)
guide: GTTTAAGAGCTAAGCTGGAAACAGCATAGCAACTTTAAATAAGGCTAGTCCGTTATCAACGTGAAAACGTGGCACCGAGTCGGTGCT
modifications: listed as DNA, chemistry not fully specified
B4: cr062 (nucleic acid)
guide: GTTCAAGTGCTAAGCTGGAAACAGCATAGCAAGTTTAAATAAGGCTAGTCCGTTATCAACTTGAAAAAGTGGCACCGAGTCGGTGCT
modifications: listed as DNA, chemistry not fully specified
B5: cr513 (nucleic acid)
guide: GTTTAAGAGCTAAGCTGGAAACAGCATAGCAACTTTAAATAAGGCTAGTCCGTTATCACCTTGAAAAAGGGGCACCGAGTCGGTGCT
modifications: listed as DNA, chemistry not fully specified
B6: cr325 (nucleic acid)
guide: GTTTAAGAGCTAAGCTGGAAACAGCATAGCAACTTTAAATAAGGCTAGTCCGTTATCAGCTTGAAAAAGCGGCACCGAGTCGGTGCT
modifications: listed as DNA, chemistry not fully specified
B7: cr401 (nucleic acid)
guide: GTTTAAGAGCTAAGCTGGAAACAGCATAGCAAGTTTAAATAAGGCTAGTCCGTTATCAACTTGAAAAAGTGGCTCCGAGTCTGCGCT
modifications: listed as DNA, chemistry not fully specified
B8: cr727 (nucleic acid)
guide: GTTTAAGAGCTAAGCTGGAAACAGCATAGCAAGTTTAAATAAGGCTAGTCCGTTATCAACTTGAAAAAGTGTCGCCGAGTCGGCGAT
modifications: listed as DNA, chemistry not fully specified
B9: cr762 (nucleic acid)
guide: GTTTAAGAGCTAAGCTGGAAACAGCATAGCACGTTTAAATAAGGCTAGTCCTTTATCAACTTGAAAAAGTGGCACCGAGTCGGTGCT
modifications: listed as DNA, chemistry not fully specified
B10: cr082 (nucleic acid)
guide: CGTTAAGAGCTAAGCTGGAAACAGCATAGCAAGTTTAAATAAGGCTAGTCCGTTATCAACTTGAAAAAGTGGCACCGAGTCGGTGCT
modifications: listed as DNA, chemistry not fully specified
B11: cr038 (nucleic acid)
guide: GTTTGCGAGCTAAGCTGGAAACAGCATAGCAAGTTTAAATAAGGCTAGTCCGTTATCAACTTGAAAAAGTGGCACCGAGTCGGTGCT
modifications: listed as DNA, chemistry not fully specified
B12: cr084 (nucleic acid)
guide: GTCTGAGAGCTAAGCTGGAAACAGCATAGCAAGTTTAAATAAGGCTAGTCCGTTATCAACTTGAAAAAGTGGCACCGAGTCGGTGCT
modifications: listed as DNA, chemistry not fully specified
B13: cr453 (nucleic acid)
guide: GTTTAAGAGCTAAGCTGGAAACAGCATAGCAAGTTTAACTAAGGCTAGTCCGTTATCAACTTGAAAAAGTGGCACCGAGTCGGTGCT
modifications: listed as DNA, chemistry not fully specified
B14: cr066 (nucleic acid)
guide: ATTCAAGAGCTAAGCTGGAAACAGCATAGCAAGTTTAAATAAGGCTAGTCCGTTATCAACTTGAAAAAGTGGCACCGAGTCGGTGCT
modifications: listed as DNA, chemistry not fully specified
B15: cr985 (nucleic acid)
guide: GTTTAAGAGCTAAGCTGGAAACAGCATAGCAAGTTTAAATAAGGCTAGTCCTTTATCAACTTGAAAAAGTGGCACCGAGTCGGTGCT
modifications: listed as DNA, chemistry not fully specified
B16: cr483 (nucleic acid)
guide: GTTTAAGAGCTAAGCTGGAAACAGCATAGCAAGTTTAAATAAGGCTAGTCCGTTATCAACTAGAAATAGTGGCGTCGAGTCGACGCT
modifications: listed as DNA, chemistry not fully specified
B17: cr288 (nucleic acid)
guide: GTTTAAGAGCTAAGCTGGAAACAGCATAGCAACTTTAAATAAGGCTAGTCCGTTATCAACTGGAAACAGTGGCACCGAGTCGGTGCT
modifications: listed as DNA, chemistry not fully specified
B18: cr791 (nucleic acid)
guide: GTTTAAGAGCTAAGCTGGAAACAGCATAGCAAGTTTAAATAAAGCTAGTCTGTTATCAACTTGAAAAAGTGGCACCCAGTGGGTGCT
modifications: listed as DNA, chemistry not fully specified
B19: cr714 (nucleic acid)
guide: GTTTAAGAGCTAAGCTGGAAACAGCATAGCAAGCTTAAATAAGGCTAGTCCGTTATCAAATTGAAAAATTGGCACCGAGTCGGTGCT
modifications: listed as DNA, chemistry not fully specified
B20: cr796 (nucleic acid)
guide: GTTTAAGAGCTAAGCTGGAAACAGCATAGCAAGTTAAAATAAGGCTAGTCCGTTATCAACTTGAAAAAGTGGCACCGAGTCGGTGCT
modifications: listed as DNA, chemistry not fully specified
B21: cr112 (nucleic acid)
guide: GTTTAAGAGCTAAGCTGGAAACAGCATAGCAAGTTTAAATAAAGTTAATCTGTTATCAATTTGAAAAAATGGCACCGAGTCGGTGCT
modifications: listed as DNA, chemistry not fully specified
B22: cr588 (nucleic acid)
guide: GTTTAAGAGCTAAGCTGGAAACAGCATAGCAACTTTAAATAAGGCTAGTCCGTTATCAACTTGAAAAAGTGGTACCGAGTCGGTACT
modifications: listed as DNA, chemistry not fully specified

This data set concerns K562 CRISPRi cells. Briefly: Constant region variant library pooled growth screen, K562. As to conditions: sgRNA constant region variants; activity relative to the original, un-modified constant region cr995. It counts as cell-based, human. Summed up:
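Relative activity expresses each targeting sequence:constant region pair's phenotype over that of the unmodified constant region. Pooled growth screen ran in K562 CRISPRi cells in duplicate spinner-flask replicates, with puromycin selection and 4–8 days' growth at >2000× coverage; library paired variants with 36 targeting sequences.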
As to B1, the Mean relative activity is given as 0.1041.
B2 yielded a Mean relative activity of 0.1027.
In the case of B3 it was 0.08764; in that of B4, 0.1003; in that of B5, 0.0947.
Molecule B6 registered a Mean relative activity of 0.09143.
The molecule B7 registered a Mean relative activity of 0.09781.
For the molecule B8, the Mean relative activity came out at 1.037.
B9 returned a Mean relative activity of 0.0885.
Regarding B10, the Mean relative activity amounted to 0.0741.
Regarding B11, the Mean relative activity was found to be 0.07321.
Take B12: the Mean relative activity amounted to 0.09372.
The molecule B13 registered a Mean relative activity of 0.09528.
On to B14, for which the Mean relative activity came out at 0.09115.
Molecule B15 registered a Mean relative activity of 0.07562.
Molecule B16 showed a Mean relative activity of 1.037.
B17 came in with a Mean relative activity of 0.1016.
In the case of B18 it was 0.07648; in that of B19, 0.09294.
With B20, the Mean relative activity came out at 0.096.
Molecule B21 displayed a Mean relative activity of 0.0933.
The molecule B22 gave a Mean relative activity of 0.07507.
